Data reported in patent US12702694B2, “Methods for identification, assessment, prevention, and treatment of metabolic disorders using SLIT2” (Dana-Farber Cancer Institute, Inc., priority 2015, dated 2026).

Experiments:
primary inguinal cells = assay: Thermogenic gene expression in primary inguinal cells with adenoviral overexpression; type: cell-based, Mus musculus
Description: Inguinal and brown stromal-vascular fractions were obtained from 6 weeks old male or newborn mice (postnatal days 5-10) for white and brown fat cultures, respectively. Inguinal fat tissue was dissected and washed with PBS, minced and digested for 45 min at 37° C. in PBS containing 10 mM CaCl2), 2.4 U/ml dispase II (Roche) and 10 mg/ml collagenase D (Roche). Brown fat tissue was dissected, washed with PBS, minced and digested for 45 min at 37° C. in PBS containing 1.3 mM CaCl2, 123 mM NaCl, 5 mM KCl, 5.0 mM glucose, 100 mM HEPES, 4% BSA and 1.5 mg/ml collagenase B (Roche). Digested tissue was filtered through a 100-μm cell strainer and centrifuged at 600 g for 10 min. […] For adenoviral overexpression of Slit2-FL, Slit2-N, Slit2-C, LacZ or Cre, virus was added at day 2 of differentiation at a titer of 10^8 particles/well and cells were analyzed at day 6-7. […]
(§1) RNA was extracted from cultured cells or frozen tissue samples using TRIzol®, purified with QIAGEN RNeasy® minicolumns. Normalized RNA was reversed transcribed using a high-capacity cDNA reverse transcription lot (Applied Biosystems) and cDNA was analyzed by qRT-CPR. Relative mRNA levels were calculated using the comparative CT method and normalized to cyclophilin […]. […]

[1] = test system: primary inguinal adipocytes; assay: Thermogenic gene expression (qRT-PCR) in primary adipocytes treated with recombinant protein; type: cell-based, Mus musculus
Description: Inguinal and brown stromal-vascular fractions were obtained from 6 weeks old male or newborn mice (postnatal days 5-10) for white and brown fat cultures, respectively. Inguinal fat tissue was dissected and washed with PBS, minced and digested for 45 min at 37° C. in PBS containing 10 mM CaCl2), 2.4 U/ml dispase II (Roche) and 10 mg/ml collagenase D (Roche). Brown fat tissue was dissected, washed with PBS, minced and digested for 45 min at 37° C. in PBS containing 1.3 mM CaCl2, 123 mM NaCl, 5 mM KCl, 5.0 mM glucose, 100 mM HEPES, 4% BSA and 1.5 mg/ml collagenase B (Roche). Digested tissue was filtered through a 100-μm cell strainer and centrifuged at 600 g for 10 min. Pelleted inguinal stromal-vascular cells were grown to confluence and induced to differentiate by an adipogenic cocktail containing 0.02 μM insulin, 1 μM rosiglitazone, 5 μM dexamethasone, 0.5 μM isobuthylmethylxanthine. For differentiation of brown fat cells, 1 nM T3 and 125 μM indomethacin were also added to the adipogenic cocktail. Two days after induction, cells were maintained in adipocyte culture medium containing 0.02 μM insulin and 1 μM rosiglitazone. Where indicated, cells were treated with forskolin (10 μM), norepinephrine (100 nM) for 4 h or with recombinant proteins (1 μg/ml, R&D systems) for 24 h or for the indicated times. For adenoviral overexpression of Slit2-FL, Slit2-N, Slit2-C, LacZ or Cre, virus was added at day 2 of differentiation at a titer of 10^8 particles/well and cells were analyzed at day 6-7. […]
as §1

PKA signaling pathway = assay: Western blotting of PKA and related signaling in primary inguinal cells; type: cell-based, Mus musculus; settings: for PKA signaling after treatment with conditioned media: serum-free conditioned media from expressing cells, acute treatment (30 min), FIG. 10G
Description: Inguinal and brown stromal-vascular fractions were obtained from 6 weeks old male or newborn mice (postnatal days 5-10) for white and brown fat cultures, respectively. Inguinal fat tissue was dissected and washed with PBS, minced and digested for 45 min at 37° C. in PBS containing 10 mM CaCl2), 2.4 U/ml dispase II (Roche) and 10 mg/ml collagenase D (Roche). Brown fat tissue was dissected, washed with PBS, minced and digested for 45 min at 37° C. in PBS containing 1.3 mM CaCl2, 123 mM NaCl, 5 mM KCl, 5.0 mM glucose, 100 mM HEPES, 4% BSA and 1.5 mg/ml collagenase B (Roche). Digested tissue was filtered through a 100-μm cell strainer and centrifuged at 600 g for 10 min. Pelleted inguinal stromal-vascular cells were grown to confluence and induced to differentiate by an adipogenic cocktail containing 0.02 μM insulin, 1 μM rosiglitazone, 5 μM dexamethasone, 0.5 μM isobuthylmethylxanthine. For differentiation of brown fat cells, 1 nM T3 and 125 μM indomethacin were also added to the adipogenic cocktail. Two days after induction, cells were maintained in adipocyte culture medium containing 0.02 μM insulin and 1 μM rosiglitazone. Where indicated, cells were treated with forskolin (10 μM), norepinephrine (100 nM) for 4 h or with recombinant proteins (1 μg/ml, R&D systems) for 24 h or for the indicated times. For adenoviral overexpression of Slit2-FL, Slit2-N, Slit2-C, LacZ or Cre, virus was added at day 2 of differentiation at a titer of 10^8 particles/well and cells were analyzed at day 6-7. Where indicated, cells were treated with the drugs Erlotinib (SelleckChem), Lapatinib (Santa Cruz), PD0325901 (Santa Cruz), Propranolol (SelleckChem), H89 dihydrochloride (Santa Cruz), SQ-22536 (Santa Cruz) for indicated time points and concentrations.
For Western blotting, homogenized tissues, whole cell lysates, or concentrated serum free conditioned medium were lysed in RIPA buffer containing protease inhibitor cocktail (Thermo Scientific) and phosphatase inhibitor cocktail (Thermo Scientific), separated by SDS-PAGE and transferred to Immobilon-P® membranes (Millipore). For Western blotting of plasma samples, 1 μl of plasma was prepared containing 2× sample buffer (Invitrogen) with reducing agent, boiled and analyzed using Western blot against V5, FLAG, or the indicated antibody. V5-antibody was from Life Technologies and anti-Flag M2-HRP (A8592) from Sigma Aldrich. Anti-Slit2 antibody used was from Abcam (Abcam ab134166). Phospho-PKA Substrate, phospho-PKC Substrate, phospho-ERK1/2, total ERK, phospho-AKT, total AKT, phospho-AMPK, total AMPK, phospho-ATGL, ATGL, phospho-EGFR and EGFR were from Cell Signaling. Protein array was from R&D Systems (Proteome Profiler Mouse Phospho-RTK Array Kit, ARY014). Silverstain (SilverQuest™ Silver Staining Kit, LC6070) was purchased from Thermo Fisher.

high fat diet-fed mice = assay: Whole body energy expenditure (CLAMS) and tissue weights; type: in vivo, Mus musculus
Description: Glucose tolerance tests were performed on mice 7 days post-injection with adenovirus. […] Animals were fasted overnight and then received intraperitoneal glucose at […]. Energy expenditure was analyzed using a Comprehensive Lab Animal Monitoring System (Columbus Instruments). Cold exposure and thermoneutrality experiments were performed in Balb/c mice at 4° C. or 30° C., respectively. Total levels of cholesterol, free fatty acids, triglycerides and insulin were measured at the Core Facility at Joslin Diabetes Center.

UCP1 = UCP1 immunohistochemistry on adipose tissue sections; type: in vivo, Mus musculus; settings: day 7
Description: Tissues were fixed in 4% paraformaldehyde. Paraffin embedding and sectioning were done by the Dana-Farber/Harvard Cancer Center Research Pathology core facility. For UCP1 immunohistochemistry, slides were deparaffinized in xylene, hydrated in descending 95%, 80% and 70% ethanol, and rinsed in water before heat-mediated antigen retrieval in 10 mM, pH 6.0 sodium citrate buffer. Quenching of endogenous peroxidases was performed using peroxidase quenching solution (Invitrogen). Slides were blocked in 10% goat serum and incubated with rabbit polyclonal UCP1 antibody (Abcam, ab10983) at […] in PBS-T/1% BSA overnight at 4° C. Slides were washed in PBS-T and incubated with 1:500 donkey anti-rabbit IgG HRP-linked antibody (GE healthcare) before developing using a SuperPicture™ 3rd Gen IHC Detection Kit (Invitrogen). Hematoxylin was used as counterstain. […] Digital images were captured with a Nikon Digital Sight DS-Fil color camera and NIS-Elements acquisition software.

[2] = Slit2-C-transduced cells, FIG. 10B
[3] = 16-week high fat diet-fed mice, Slit2-C adenovirus vs LacZ

B1: Slit2-C: ~50 kDa C-terminal cleavage fragment of Slit2 beginning at TSP (SEQ ID NO: 22); adenovirally expressed or purified FLAG-tagged protein (protein, listed as Homo sapiens)
chain: TSPCDNFDCQNGAQCIIRINEPICQCLPGYLGEKCEKLVSVNFVNKESYLQIPSAKVRPQTNITLQIATDEDSGILLYKGDKDHIAVELYRGRVRASYDTGSHPASAIYSVETINDGNFHIVELLTLDSSLSLSVDGGSPKVITNLSKQSTLNFDSPLYVGGMPGKNNVASLRQAPGQNGTSFHGCIRNLYINSELQDFRKMPMQTGILPGCEPCHKKVCAHGMCQPSSQSGFTCECEEGWMGPLCDQRTNDPCLGNKCVHGTCLPINAFSYSCKCLEGHGGVLCDEEEDLFNPCQMIKCKHGKCRLSGVGQPYCECNSGFTGDSCDREISCRGERIRDYYQKQQGYAACQTTKKVSRLECRGGCAGGQCCGPLRSKRRKYSFECTDGSSFVDEVEKVVKCGCARCAS
modifications: FLAG tag
notes: adenovirally expressed or purified FLAG-tagged protein
With B1 as the molecule, how does the “thermogenic gene expression in primary inguinal cells” value (primary inguinal cells; Slit2-C vs LacZ virus, day 7, FIG. 6A) read?
Its value is “comparable to full-length Slit2”.

And the “changes in thermogenic gene expression in white and brown adipocytes in culture” value ([1]; 2 h after purified protein treatment, FIG. 10N)?
The value was “induced”.

What about the “activation of protein kinase C (PKC) substrates and ATGL S406” value (PKA signaling pathway; FIG. 10E) of the same molecule?
The value was “minimal”.

What about the “protein levels of UCP1” value (PKA signaling pathway; Slit2-C overexpression, FIGS. 10B, 10F) of the same molecule?
The value was “increased”.

And the “phosphorylation of hormone sensitive lipase (HSL S660)” value (PKA signaling pathway; [2])?
The value was “induced”.

What about the “total HSL” value (PKA signaling pathway; [2]) of the same molecule?
Its value is “unaffected”.

And the “phosphorylation of PKA substrates” value (PKA signaling pathway; Slit2-C-transduced vs lacZ-transduced cells, FIG. 10B)?
The value was “robust phosphorylation”.

And the “PKA signaling after treatment with conditioned media” value (PKA signaling pathway)?
Its value is “increased”.

And the “subset of PKA substrate phosphorylations after purified protein treatment” value (PKA signaling pathway; time-dependent and dose-dependent, FIGS. 10M, 11F)?
The value was “increased”.

And the body weight (high fat diet-fed mice; [3])?
The body weight was “no observable difference”.

What about the food intake (high fat diet-fed mice; [3]) of the same molecule?
Its food intake is “no observable difference”.

What about the locomotor activity (high fat diet-fed mice; [3]) of the same molecule?
Its locomotor activity is “no observable difference”.

And the “respiratory exchange ratio (RER)” value (high fat diet-fed mice; [3])?
The value was “no observable difference”.

And the whole-body oxygen consumption (high fat diet-fed mice; 16-week high fat diet-fed mice, Slit2-C adenovirus vs LacZ, normalized to total body weight)?
Its whole-body oxygen consumption is “induced”.

What about the “mass of the brown and inguinal depots” value (high fat diet-fed mice; day 7 post-injection, FIGS. 8F, 8I) of the same molecule?
The value was “reduction”.

What about the “UCP1 staining in inguinal white fat depots” value (UCP1; Slit2-C vs control animals, FIGS. 6E, 6G) of the same molecule?
The value was “multiple pockets of UCP1-positive cells”.

B2: Slit2: Slit family secreted extracellular matrix protein, full length ~180 kDa; used as commercial recombinant protein or adenovirally expressed (protein)
chain: QACPAQCSCSGSTVDCHGLALRSVPRNIPRNTERLDLNGNNITRITKIDFAGLRHLRVLQLMENRISTIERGAFQDLKELERLRLNRNNLQLFPELLFLGTAKLYRLDLSENQIQAIPRKAFRGAVDIKNLQLDYNQISCIEDGAFRALRDLEVLTLNNNNITRLSVASFNHMPKLRTFRLHSNNLYCDCHLAWLSDWLRQRPRVGLYTQCMGPSHLRGHNVAEVQKREFVCSGHQSFMAPSCSVLHCPAACTCSNNIVDCRGKGLTEIPTNLPETITEIRLEQNSIRVIPPGAFSPYKKLRRLDLSNNQISELAPDAFQGLRSLNSLVLYGNKITELPKSLFEGLFSLQLLLLNANKINCLRVDAFQDLHNLNLLSLYDNKLQTVAKGTFSALRAIQTMHLAQNPFICDCHLKWLADYLHTNPIETSGARCTSPRRLANKRIGQIKSKKFRCSGTEDYRSKLSGDCFADLACPEKCRCEGTTVDCSNQRLNKIPDHIPQYTAELRLNNNEFTVLEATGIFKKLPQLRKINFSNNKITDIEEGAFEGASGVNEILLTSNRLENVQHKMFKGLESLKTLMLRSNRISCVGNDSFIGLGSVRLLSLYDNQITTVAPGAFDSLHSLSTLNLLANPFNCNCHLAWLGEWLRRKRIVTGNPRCQKPYFLKEIPIQDVAIQDFTCDDGNDDNSCSPLSRCPSECTCLDTVVRCSNKGLKVLPKGIPKDVTELYLDGNQFTLVPKELSNYKHLTLIDLSNNRISTLSNQSFSNMTQLLTLILSYNRLRCIPPRTFDGLKSLRLLSLHGNDISVVPEGAFNDLSALSHLAIGANPLYCDCNMQWLSDWVKSEYKEPGIARCAGPGEMADKLLLTTPSKKFTCQGPVDITIQAKCNPCLSNPCKNDGTCNNDPVDFYRCTCPYGFKGQDCDVPIHACISNPCKHGGTCHLKEGENAGFWCTCADGFEGENCEVNIDDCEDNDCENNSTCVDGINNYTCLCPPEYTGELCEEKLDFCAQDLNPCQHDSKCILTPKGFKCDCTPGYIGEHCDIDFDDCQDNKCKNGAHCTDAVNGYTCVCPEGYSGLFCEFSPPMVLPRTSPCDNFDCQNGAQCIIRINEPICQCLPGYLGEKCEKLVSVNFVNKESYLQIPSAKVRPQTNITLQIATDEDSGILLYKGDKDHIAVELYRGRVRASYDTGSHPASAIYSVETINDGNFHIVELLTLDSSLSLSVDGGSPKVITNLSKQSTLNFDSPLYVGGMPGKNNVASLRQAPGQNGTSFHGCIRNLYINSELQDFRKMPMQTGILPGCEPCHKKVCAHGMCQPSSQSGFTCECEEGWMGPLCDQRTNDPCLGNKCVHGTCLPINAFSYSCKCLEGHGGVLCDEEEDLFNPCQMIKCKHGKCRLSGVGQPYCECNSGFTGDSCDREISCRGERIRDYYQKQQGYAACQTTKKVSRLECRGGCAGGQCCGPLRSKRRKYSFECTDGSSFVDEVEKVVKCGCARCAS
For B2, which “increase in Ucp1 mRNA” value (primary inguinal cells; adenovirus on day 2 of differentiation, analyzed day 7, vs lacZ, FIG. 3D) is on record?
Its value is 8 fold.

What about the “expression of other genes associated with thermogenesis, including Dio2 and Cidea” value ([1]; recombinant Slit2 protein 1 μg/ml, 24 hours, FIG. 3A) of the same molecule?
The value was “large increases”.

What about the “increase in Ucp1 mRNA” value ([1]; recombinant Slit2 protein 1 μg/ml, 24 hours, fully differentiated primary inguinal adipocytes, FIG. 3A) of the same molecule?
Its value is ~ 3 fold.

What about the “PKA signaling after treatment with conditioned media” value (PKA signaling pathway) of the same molecule?
Its value is “increased”.

What about the “energy expenditure, compared with Slit2-C experiments” value (high fat diet-fed mice; full-length Slit2 adenovirus, FIGS. 9A-9E) of the same molecule?
The value was “comparable results”.

What about the “iWAT UCP1 protein” value (UCP1; histological sections, i.v. Slit2 adenovirus) of the same molecule?
Its value is “increased”.
